Substitutions are numbered along the chain they refer to. Several values for one entry are separate records, joined by “and”; a condition that tells them apart may be missing. Equal values may be shown once.
Legend:
human CD16a V158 = biological target: T1, human CD16a V158 (human, UniProt P08637 17-208); experiment: SPR, average
T1 construct: also called hCD16aV; hCD16a V158

human CD32a H131 = biological target: T2, human CD32a H131 (human, UniProt P12318 36-218, limits assumed); experiment: SPR, steady state, average
T2 sequence (looked up): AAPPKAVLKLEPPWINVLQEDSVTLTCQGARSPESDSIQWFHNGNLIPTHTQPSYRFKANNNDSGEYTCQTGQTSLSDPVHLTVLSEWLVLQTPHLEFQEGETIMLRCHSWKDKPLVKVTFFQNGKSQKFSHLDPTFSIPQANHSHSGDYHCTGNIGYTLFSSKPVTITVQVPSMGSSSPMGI

[1] = biological target: T3, human NKG2D (recombinant mFc-tagged dimer) (human, UniProt P26718 78-216); experiment: SPR, average
T3 construct: also called hNKG2D
T3 sequence (looked up): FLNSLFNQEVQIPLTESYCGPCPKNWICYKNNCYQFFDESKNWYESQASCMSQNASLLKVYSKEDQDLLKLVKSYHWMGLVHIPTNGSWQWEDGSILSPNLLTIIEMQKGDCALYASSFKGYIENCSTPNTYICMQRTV
Text: (§1) NKG2D is a native dimer, therefore recombinant mFc-tagged NKG2D dimer was used for this experiment. Two different fits were utilized to obtain the equilibrium affinity data: steady state affinity fit and kinetic fit.

cynomolgus CD16 [2] = biological target: T4, cynomolgus CD16 (cynomolgus, UniProt Q8SPW2 17-208, limits assumed); experiment: SPR
T4 construct: also called Cyno CD16; cynomolgus FcγRIII
T4 sequence (Q8SPW2 17-208 limits assumed): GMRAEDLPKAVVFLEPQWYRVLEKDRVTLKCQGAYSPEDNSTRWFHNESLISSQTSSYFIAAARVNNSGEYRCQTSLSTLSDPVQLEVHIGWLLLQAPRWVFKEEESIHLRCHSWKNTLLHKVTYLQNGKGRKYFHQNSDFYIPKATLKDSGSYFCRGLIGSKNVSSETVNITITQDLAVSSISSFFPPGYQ

[3] = biological target: T3, human NKG2D (recombinant mFc-tagged …); experiment: SPR, steady state, after 4 weeks at 40 °C
[4] = biological target: T3, human NKG2D (recombinant mFc-tagged …); experiment: SPR, kinetics fit
Text: as §1

[5] = biological target: T5, cynomolgus monkey BAFF-R expressed on cells (cynomolgus monkey); experiment: flow cytometry, cynomolgus BAFF-R CHO cells
T5 construct: whole, on cells; also called cBAFF-R; cynoBAFF-R
Text: Isogenic cell lines overexpressing human and cynomolgus BAFF-R on the backbone of CHO cell line were designed.

[6] = biological target: T3, human NKG2D (recombinant mFc-tagged …); experiment: SPR, kinetics fit, average
Text: as §1

human CD16b = biological target: T6, human CD16b (human, UniProt O75015 17-200, limits assumed); experiment: SPR, steady state
T6 construct: also called FcγRIIIb
T6 sequence (O75015 17-200 limits assumed): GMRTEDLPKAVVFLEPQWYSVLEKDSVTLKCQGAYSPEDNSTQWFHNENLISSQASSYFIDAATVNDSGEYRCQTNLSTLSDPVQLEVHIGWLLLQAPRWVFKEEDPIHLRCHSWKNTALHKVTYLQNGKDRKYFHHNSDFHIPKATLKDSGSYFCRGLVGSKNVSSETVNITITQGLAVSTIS

[7] = biological target: T7, human BAFF-R expressed on cells (human, UniProt Q96RJ3 1-184); experiment: flow cytometry, Jeko-1 cells
T7 construct: Cell surface BAFF-R, endogenous on B cell lines and primary B cells or overexpressed on isogenic CHO cells; also called hBAFF-R; hBAFF-R-CHO

[8] = biological target: T3, human NKG2D (recombinant mFc-tagged …); experiment: SPR, kinetic fit, control
[9] = biological target: T8, cynomolgus NKG2D (recombinant mFc-tagged dimer) (cynomolgus, UniProt P61252 78-216); experiment: SPR, 1:1 kinetic fit, average
T8 construct: also called cyno NKG2D
T8 sequence (looked up): T3 sequence (looked up) with D38N, T128I
Text: as §1

[10] = biological target: T7, human BAFF-R expressed on cells; experiment: cell-based or functional assay
[11] = biological target: T7, human BAFF-R expressed on cells; experiment: flow cytometry, Raji cells
recombinant human TACI = biological target: T9, recombinant human TACI (human, UniProt O14836 2-166, limits assumed); experiment: SPR, immobilized AB1424 F3', analyte 500 nM TACI
T9 sequence (looked up): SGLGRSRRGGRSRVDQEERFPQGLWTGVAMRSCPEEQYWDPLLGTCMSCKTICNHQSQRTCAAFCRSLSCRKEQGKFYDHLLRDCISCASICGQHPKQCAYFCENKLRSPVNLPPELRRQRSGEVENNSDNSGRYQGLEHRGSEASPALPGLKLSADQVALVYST

[12] = biological target: T7, human BAFF-R expressed on cells; experiment: KinExA, BAFF-R-CHO cells
cynomolgus CD16 [13] = biological target: T4, cynomolgus CD16; experiment: SPR, kinetic fit, average
[14] = biological target: T8, cynomolgus NKG2D (recombinant …); experiment: SPR, steady state fit
Text: as §1

cynomolgus FcRn [15] = biological target: T10, cynomolgus FcRn (cynomolgus, UniProt Q8SPV9 24-297; Q8SPW0 21-119); experiment: SPR, pH 6.0, summary table
T10 construct: also called Cyno FcRn
T10 sequence (Q8SPV9 24-297 limits assumed, chain 1 of 2): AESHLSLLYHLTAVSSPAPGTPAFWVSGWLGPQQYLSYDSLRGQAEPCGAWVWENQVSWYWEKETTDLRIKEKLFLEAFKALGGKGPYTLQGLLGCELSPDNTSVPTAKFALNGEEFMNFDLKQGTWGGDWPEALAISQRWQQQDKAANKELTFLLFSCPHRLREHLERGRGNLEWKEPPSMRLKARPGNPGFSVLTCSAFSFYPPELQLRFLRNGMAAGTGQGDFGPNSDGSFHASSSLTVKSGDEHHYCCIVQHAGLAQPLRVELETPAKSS
T10 sequence (Q8SPW0 21-119 limits assumed, chain 2 of 2): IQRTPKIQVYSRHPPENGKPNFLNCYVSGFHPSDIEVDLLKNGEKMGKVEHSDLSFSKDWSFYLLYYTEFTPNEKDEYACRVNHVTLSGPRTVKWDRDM

[16] = biological target: T3, human NKG2D (recombinant mFc-tagged …); experiment: SPR
Text: as §1

[17] = biological target: T7, human BAFF-R expressed on cells; experiment: flow cytometry, CHO-hBAFF-R cells
human CD32a R131 = biological target: T11, human CD32a R131 (human, UniProt P12318 36-218, limits assumed); experiment: SPR, steady state
T11 construct: also called FcγRIIa R131
T11 sequence (looked up): T2 sequence (looked up) with H132R

cynomolgus FcRn [18] = biological target: T10, cynomolgus FcRn; experiment: SPR, pH 6.0, steady state, average; pH 6.0; average of four replicates

T1 sequence (P08637 17-208 F176V limits assumed): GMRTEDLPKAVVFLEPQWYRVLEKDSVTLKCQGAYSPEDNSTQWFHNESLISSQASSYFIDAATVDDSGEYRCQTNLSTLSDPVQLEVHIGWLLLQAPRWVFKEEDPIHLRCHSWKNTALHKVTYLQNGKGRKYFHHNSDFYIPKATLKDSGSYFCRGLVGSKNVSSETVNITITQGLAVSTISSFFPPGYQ

B1: AB1424/AB1612 F3′ TriNKET (bispecific antibody, human IgG1, kappa)
chain: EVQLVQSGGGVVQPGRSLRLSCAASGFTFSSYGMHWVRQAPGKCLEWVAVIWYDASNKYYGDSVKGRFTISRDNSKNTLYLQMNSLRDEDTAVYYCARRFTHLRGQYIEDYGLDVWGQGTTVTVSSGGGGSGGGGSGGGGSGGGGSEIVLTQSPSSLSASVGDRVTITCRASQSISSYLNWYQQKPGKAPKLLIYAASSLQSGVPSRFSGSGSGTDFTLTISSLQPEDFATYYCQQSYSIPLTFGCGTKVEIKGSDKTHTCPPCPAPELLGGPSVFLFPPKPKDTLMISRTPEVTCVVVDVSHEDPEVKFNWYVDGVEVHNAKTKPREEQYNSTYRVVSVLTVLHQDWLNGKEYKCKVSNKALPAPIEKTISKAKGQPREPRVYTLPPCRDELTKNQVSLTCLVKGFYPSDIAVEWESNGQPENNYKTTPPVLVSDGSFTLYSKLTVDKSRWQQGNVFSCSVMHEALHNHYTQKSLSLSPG
heavy: EVQLVESGGGLVKPGGSLRLSCAASGFTFSSYSMNWVRQAPGKGLEWVSSISSSSSYIYYADSVKGRFTISRDNAKNSLYLQMNSLRAEDTAVYYCARGAPIGAAAGWFDPWGQGTLVTVSSASTKGPSVFPLAPSSKSTSGGTAALGCLVKDYFPEPVTVSWNSGALTSGVHTFPAVLQSSGLYSLSSVVTVPSSSLGTQTYICNVNHKPSNTKVDKKVEPKSCDKTHTCPPCPAPELLGGPSVFLFPPKPKDTLMISRTPEVTCVVVDVSHEDPEVKFNWYVDGVEVHNAKTKPREEQYNSTYRVVSVLTVLHQDWLNGKEYKCKVSNKALPAPIEKTISKAKGQPREPQVCTLPPSRDELTENQVSLTCLVKGFYPSDIAVEWESNGQPENNYKTTPPVLDSDGSFFLYSWLTVDKSRWQQGNVFSCSVMHEALHNHYTQKSLSLSPG
light: DIQMTQSPSSVSASVGDRVTITCRASQGISSWLAWYQQKPGKAPKLLIYAASSLQSGVPSRFSGSGSGTDFTLTISSLQPEDFATYYCQQGVSFPRTFGGGTKVEIKRTVAAPSVFIFPPSDEQLKSGTASVVCLLNNFYPREAKVQWKVDNALQSGNSQESVTEQDSKDSTYSLSSTLTLSKADYEKHKVYACEVTHQGLSSPVTKSFNRGEC
notes: Chain S: anti-BAFF-R scFv-CH2-CH3; chain H: anti-NKG2D VH-CH1-CH2-CH3; chain L: anti-NKG2D VL-CL; also called AB1612-002
With B1 the koff (human CD16a V158) was 0.014 s⁻¹, the kon (human CD16a V158) was 110000 M⁻¹ s⁻¹ and the Kd (human CD32a H131) was 1000 nM. For the same binder, the koff [1] was 0.11 s⁻¹, the kon [1] was 240000 M⁻¹ s⁻¹ and the Kd (cynomolgus CD16 [2]) was 261 nM and 269 nM and 283 nM and 260 nM. The koff (cynomolgus CD16 [2]) was 0.02 s⁻¹ and 0.021 s⁻¹, the kon (cynomolgus CD16 [2]) was 78000 M⁻¹ s⁻¹ and 72000 M⁻¹ s⁻¹ and the Kd [3] was 522 nM. For the same binder, the Kd [4] was 439 nM and 453 nM and 466 nM and 465 nM, the EC50 [5] was 0.9 nM and the “Max FOB” value [5] was 141 fold over background. For the same binder, the Kd [6] was 456 nM, the Kd (human CD16b) was 7000 nM and 6300 nM and 7900 nM and 6400 nM and the EC50 [7] was 0.13 nM. For the same binder, the “Max FOB” value [7] was 7 fold over background, the Kd [8] was 503 nM and the Kd [9] was 517 nM. The “KHYG-1-CD16a cytotoxicity on BJAB cells, EC50” value [10] was 0.03 nM, the EC50 [11] was 0.18 nM and the “Max FOB” value [11] was 10 fold over background. For the same binder, the binding result (recombinant human TACI) was “no binding (tested: 500 nM)”, the Kd [12] was 2.55 nM and the Kd (cynomolgus CD16 [13]) was 271 nM. The Kd [14] was 501 nM and 516 nM and 535 nM and 530 nM, the Kd (cynomolgus FcRn [15]) was 1000 nM and the koff [16] was 0.11 s⁻¹. For the same binder, the kon [16] was 240000 M⁻¹ s⁻¹ and 230000 M⁻¹ s⁻¹, the EC50 [17] was 0.7 nM and the “Max FOB” value [17] was 146 fold over background. The Kd (human CD32a R131) was 1500 nM and 1300 nM and 1200 nM and the Kd (cynomolgus FcRn [18]) was 1000 nM.
